B1: LIM domain-binding protein 3 (Homo sapiens), O75112 (parent)
chain: MSYSVTLTGPGPWGFRLQGGKDFNMPLTISRITPGSKAAQSQLSQGDLVVAIDGVNTDTMTHLEAQNKIKSASYNLSLTLQKSKRPIPISTTAPPVQTPLPVIPHQKDPALDTNGSLVAPSPSPEARASPGTPGTPELRPTFSPAFSRPSAFSSLAEASDPGPPRASLRAKTSPEGARDLLGPKALPGSSQPRQYNNPIGLYSAETLREMAQMYQMSLRGKASGVGLPGGSLPIKDLAVDSASPVYQAVIKSQNKPEDEADEWARRSSNLQSRSFRILAQMTGTEFMQDPDEEALRRSSTPIEHAPVCTSQATTPLLPASAQPPAAASPSAASPPLATAAAHTAIASASTTAPASSPADSPRPQASSYSPAVAASSAPATHTSYSEGPAAPAPKPRVVTTASIRPSVYQPVPASTYSPSPGANYSPTPYTPSPAPAYTPSPAPAYTPSPVPTYTPSPAPAYTPSPAPNYNPAPSVAYSGGPAEPASRPPWVTDDSFSQKFAPGKSTTSISKQTLPRGGPAYTPAGPQVPPLARGTVQRAERFPASSRTPLCGHCNNVIRGPFLVAMGRSWHPEEFTCAYCKTSLADVCFVEEQNNVYCERCYEQFFAPLCAKCNTKIMGEVMHALRQTWHTTCFVCAACKKPFGNSLFHMEDGEPYCEKDYINLFSTKCHGCDFPVEAGDKFIEALGHTWHDTCFICAVCHVNLEGQPFYSKKDRPLCKKHAHTINL
B2: Zinc finger protein GLIS2 (Homo sapiens), Q9BZE0 (parent)
chain: MHSLDEPLDLKLSITKLRAAREKRERTLGVVRPRALHRELGLVDDSPTPGSPGSPPSGFLLNSKFPEKVEGRFSAAPLVDLSLSPPSGLDSPNGSSSLSPERQGNGDLPPVPSASDFQPLRYLDGVPSSFQFFLPLGSGGALHLPASSFLTPPKDKCLSPDLPLPKQLVCRWAKCNQLFELLQDLVDHVNDYHVKPEKDAGYCCHWEGCARHGRGFNARYKMLIHIRTHTNEKPHRCPTCSKSFSRLENLKIHNRSHTGEKPYVCPYEGCNKRYSNSSDRFKHTRTHYVDKPYYCKMPGCHKRYTDPSSLRKHIKAHGHFVSHEQQELLQLRPPPKPPLPAPDGGPYVSGAQIIIPNPAALFGGPGLPGLPLPLAPGPLDLSALACGNGGGSGGGGGMGPGLPGPVLPLNLAKNPLLPSPFGAGGLGLPVVSLLAGAAGGKAEGEKGRGSVPTRALGMEGHKTPLERTESSCSRPSPDGLPLLPGTVLDLSTGVNSAASSPEALAPGWVVIPPGSVLLKPAVVN
B3: "Poly(A) RNA polymerase, mitochondrial" (Homo sapiens), Q9NVV4 (parent)
chain: MAVPGVGLLTRLNLCARRRTRVQRPIVRLLSCPGTVAKDLRRDEQPSGSVETGFEDKIPKRRFSEMQNERREQAQRTVLIHCPEKISENKFLKYLSQFGPINNHFFYESFGLYAVVEFCQKESIGSLQNGTHTPSTAMETAIPFRSRFFNLKLKNQTSERSRVRSSNQLPRSNKQLFELLCYAESIDDQLNTLLKEFQLTEENTKLRYLTCSLIEDMAAAYFPDCIVRPFGSSVNTFGKLGCDLDMFLDLDETRNLSAHKISGNFLMEFQVKNVPSERIATQKILSVLGECLDHFGPGCVGVQKILNARCPLVRFSHQASGFQCDLTTNNRIALTSSELLYIYGALDSRVRALVFSVRCWARAHSLTSSIPGAWITNFSLTMMVIFFLQRRSPPILPTLDSLKTLADAEDKCVIEGNNCTFVRDLSRIKPSQNTETLELLLKEFFEYFGNFAFDKNSINIRQGREQNKPDSSPLYIQNPFETSLNISKNVSQSQLQKFVDLARESAWILQQEDTDRPSISSNRPWGLVSLLLPSAPNRKSFTKKKSNKFAIETVKNLLESLKGNRTENFTKTSGKRTISTQT
B4: Epithelial sodium channel subunit beta (Homo sapiens), P51168 (parent)
chain: MHVKKYLLKGLHRLQKGPGYTYKELLVWYCDNTNTHGPKRIICEGPKKKAMWFLLTLLFAALVCWQWGIFIRTYLSWEVSVSLSVGFKTMDFPAVTICNASPFKYSKIKHLLKDLDELMEAVLERILAPELSHANATRNLNFSIWNHTPLVLIDERNPHHPMVLDLFGDNHNGLTSSSASEKICNAHGCKMAMRLCSLNRTQCTFRNFTSATQALTEWYILQATNIFAQVPQQELVEMSYPGEQMILACLFGAEPCNYRNFTSIFYPHYGNCYIFNWGMTEKALPSANPGTEFGLKLILDIGQEDYVPFLASTAGVRLMLHEQRSYPFIRDEGIYAMSGTETSIGVLVDKLQRMGEPYSPCTVNGSEVPVQNFYSDYNTTYSIQACLRSCFQDHMIRNCNCGHYLYPLPRGEKYCNNRDFPDWAHCYSDLQMSVAQRETCIGMCKESCNDTQYKMTISMADWPSEASEDWIFHVLSQERDQSTNITLSRKGIVKLNIYFQEFNYRTIEESAANNIVWLLSNLGGQFGFWMGGSVLCLIEFGEIIIDFVWITIIKLVALAKSLRQRRAQASYAGPPPTVAELVEAHTNFGFQPDTAPRSPNTGPYPSEQALPIPGTPPPNYDSLRLQPLDVIESDSEGDAI

Variants of: B1
Settings: with src_human SRC

Which “effect of a mutation on the interaction” value does the source give for P99S here?
Its value is “decreasing interaction strength”.

Variants of: B2
Settings: with ptbp1_human PTBP1, P26599
Sequence of ptbp1_human PTBP1, P26599 (P26599 whole entry): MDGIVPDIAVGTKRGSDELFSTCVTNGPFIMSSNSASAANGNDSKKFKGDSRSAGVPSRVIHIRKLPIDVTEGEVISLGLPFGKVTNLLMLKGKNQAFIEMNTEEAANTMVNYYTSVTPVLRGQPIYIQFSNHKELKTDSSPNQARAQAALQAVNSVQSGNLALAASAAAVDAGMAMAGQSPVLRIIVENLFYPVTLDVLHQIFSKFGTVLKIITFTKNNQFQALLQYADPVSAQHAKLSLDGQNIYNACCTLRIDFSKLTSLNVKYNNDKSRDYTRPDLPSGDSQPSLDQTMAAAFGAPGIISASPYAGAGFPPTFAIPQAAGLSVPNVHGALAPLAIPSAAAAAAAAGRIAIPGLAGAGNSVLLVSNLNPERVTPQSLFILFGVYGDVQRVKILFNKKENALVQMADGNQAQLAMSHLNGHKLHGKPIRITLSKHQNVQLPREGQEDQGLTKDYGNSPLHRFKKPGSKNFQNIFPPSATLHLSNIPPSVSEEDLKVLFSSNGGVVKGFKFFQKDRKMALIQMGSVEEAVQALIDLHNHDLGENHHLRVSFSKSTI

MHSLDEPLDLKLSITKLRAAREKRERTLGVVRPRALHRELGLVDDSPTPGSPGSPPSGFLLNSKFPEKVEGRFSAAPLVDLSLSPPSGLDSPNGSSSLSPERQGNGDLPPVPSASDFQPLRYLDGVPSSFQFFLPLGSGGALHLPASSFLTPPKDKCLSPDLPLPKQLVCRWAKCNQLFELLQDLVDHVNDYHVKPEKDAGYCCHWEGCARHGRGFNARYKMLIHIRTHTNEKPHRCPTCSKSFSRLENLKIHNRSHTGEKPYVCPYEGCNKRYSNSSDRFKHTRTHYVDKPYYCKMPGCHKRYTDPSSLRKHIKAHGHFVSHEQQELLQLRPPPKPPLPAPDGGPYVSGAQIIIPNPAALFGGPGLPGLPLPLAPGPLDLSALACGNGGGSGGGGGMGPGLPGPVLPLNLAKNPLLPSLFGAGGLGLPVVSLLAGAAGGKAEGEKGRGSVPTRALGMEGHKTPLERTESSCSRPSPDGLPLLPGTVLDLSTGVNSAASSPEALAPGWVVIPPGSVLLKPAVVN [P420L] was tested. Which “effect of a mutation on the interaction” value did it give?
The value was “decreasing interaction strength”.

Variants of: B3
Settings: with eps15_human EPS15, P42566
Sequence of eps15_human EPS15, P42566 (P42566 whole entry): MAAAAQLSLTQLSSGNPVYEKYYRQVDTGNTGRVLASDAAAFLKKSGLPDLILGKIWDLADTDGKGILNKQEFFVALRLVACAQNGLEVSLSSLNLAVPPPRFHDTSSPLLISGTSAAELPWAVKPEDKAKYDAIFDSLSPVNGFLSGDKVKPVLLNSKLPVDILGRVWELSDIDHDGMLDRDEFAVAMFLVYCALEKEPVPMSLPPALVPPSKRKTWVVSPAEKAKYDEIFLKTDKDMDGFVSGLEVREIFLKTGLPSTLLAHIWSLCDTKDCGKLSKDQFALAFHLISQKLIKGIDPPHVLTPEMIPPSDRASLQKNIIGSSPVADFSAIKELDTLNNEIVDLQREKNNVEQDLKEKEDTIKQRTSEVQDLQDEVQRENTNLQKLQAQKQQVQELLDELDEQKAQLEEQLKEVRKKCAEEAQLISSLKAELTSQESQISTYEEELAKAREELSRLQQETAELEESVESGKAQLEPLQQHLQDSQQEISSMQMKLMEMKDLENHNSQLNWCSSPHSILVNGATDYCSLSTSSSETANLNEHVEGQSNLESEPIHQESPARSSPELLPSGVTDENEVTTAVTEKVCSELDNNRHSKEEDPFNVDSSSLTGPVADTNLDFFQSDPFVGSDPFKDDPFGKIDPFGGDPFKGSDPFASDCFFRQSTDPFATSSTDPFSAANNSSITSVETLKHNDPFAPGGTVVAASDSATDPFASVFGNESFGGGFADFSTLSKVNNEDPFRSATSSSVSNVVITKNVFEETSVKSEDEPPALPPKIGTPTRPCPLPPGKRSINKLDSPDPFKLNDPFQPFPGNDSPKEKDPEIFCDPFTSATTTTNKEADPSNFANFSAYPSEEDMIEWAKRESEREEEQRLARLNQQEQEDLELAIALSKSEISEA

MAVPGVGLLTRLNLCARRRTRVQRPIVRLLSCPGTVAKDLRRDEQPSGSVETGFEDKIPKRRFSEMQNERREQAQRTVLIHCPEKISENKFLKYLSQFGPINNHFFYESFGLYAVVEFCQKESIGSLQNGTHTPSTAMETAIPFRSRFFNLKLKNQTSERSRVRSSNQLPRSNKQLFELLCYAESIDDQLNTLLKEFQLTEENTKLRYLTCSLIEDMAAAYFPDCIVRPFGSSVNTFGKLGCDLDMFLDLDETRNLSAHKISGNFLMEFQVKNVPSERIATQKILSVLGECLDHFGPGCVGVQKILNARCPLVRFSHQASGFQCDLTTNNRIALTSSELLYIYGALDSRVRALVFSVRCWARAHSLTSSIPGAWITNFSLTMMVIFFLQRRSPPILPTLDSLKTLADAEDKCVIEGNNCTFVRDLSRIKPSQNTETLELLLKEFFEYFGNFAFDKNSINIRQGREQNKPDSSPLYIQDPFETSLNISKNVSQSQLQKFVDLARESAWILQQEDTDRPSISSNRPWGLVSLLLPSAPNRKSFTKKKSNKFAIETVKNLLESLKGNRTENFTKTSGKRTISTQT [N478D] was tested. Which “effect of a mutation on the interaction” value did it give?
The value was “decreasing interaction strength”.

Variants of: B4
Settings: with nedd4_human NEDD4, P46934
Sequence of nedd4_human NEDD4, P46934 (P46934 whole entry): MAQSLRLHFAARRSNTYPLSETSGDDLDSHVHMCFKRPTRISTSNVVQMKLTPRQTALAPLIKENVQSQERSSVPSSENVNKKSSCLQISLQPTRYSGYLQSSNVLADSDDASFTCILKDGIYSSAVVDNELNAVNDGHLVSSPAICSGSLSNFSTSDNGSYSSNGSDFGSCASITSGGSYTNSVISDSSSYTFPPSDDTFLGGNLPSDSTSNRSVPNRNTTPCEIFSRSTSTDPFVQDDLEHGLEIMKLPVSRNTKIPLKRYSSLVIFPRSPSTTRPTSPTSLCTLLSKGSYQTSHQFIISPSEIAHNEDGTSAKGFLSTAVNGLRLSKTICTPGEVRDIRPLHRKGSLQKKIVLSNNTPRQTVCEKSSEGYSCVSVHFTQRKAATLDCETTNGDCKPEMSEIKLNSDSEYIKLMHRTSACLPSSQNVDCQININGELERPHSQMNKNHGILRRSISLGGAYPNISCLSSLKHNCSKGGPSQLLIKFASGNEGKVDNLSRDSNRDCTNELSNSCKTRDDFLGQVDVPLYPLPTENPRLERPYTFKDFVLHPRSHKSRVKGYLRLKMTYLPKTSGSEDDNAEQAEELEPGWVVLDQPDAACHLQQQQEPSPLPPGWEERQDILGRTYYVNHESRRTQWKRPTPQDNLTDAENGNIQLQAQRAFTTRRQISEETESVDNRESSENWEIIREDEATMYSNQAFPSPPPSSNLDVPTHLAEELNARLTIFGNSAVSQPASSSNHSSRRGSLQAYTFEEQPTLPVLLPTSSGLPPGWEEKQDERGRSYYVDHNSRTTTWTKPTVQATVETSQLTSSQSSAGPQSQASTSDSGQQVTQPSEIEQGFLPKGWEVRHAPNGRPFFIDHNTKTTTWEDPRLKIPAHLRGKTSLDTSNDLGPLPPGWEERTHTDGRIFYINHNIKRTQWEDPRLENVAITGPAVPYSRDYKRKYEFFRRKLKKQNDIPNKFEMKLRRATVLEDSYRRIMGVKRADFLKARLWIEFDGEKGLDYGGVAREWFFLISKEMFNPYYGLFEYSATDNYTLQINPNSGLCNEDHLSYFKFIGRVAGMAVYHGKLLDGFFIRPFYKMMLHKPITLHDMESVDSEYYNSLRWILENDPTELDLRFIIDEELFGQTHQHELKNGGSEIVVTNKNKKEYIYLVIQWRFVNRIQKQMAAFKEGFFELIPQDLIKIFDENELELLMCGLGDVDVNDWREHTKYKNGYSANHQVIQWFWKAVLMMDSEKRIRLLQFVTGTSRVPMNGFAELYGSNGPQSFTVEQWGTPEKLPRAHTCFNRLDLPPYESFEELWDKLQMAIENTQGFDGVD

With P617S as the variant, how does the “effect of a mutation on the interaction” value read?
The value was “decreasing interaction strength”.

Which “effect of a mutation on the interaction” value does the source give for P618R here?
The value was “decreasing interaction strength”.

Variants of: B4
Settings: with wwtr1_human WWTR1, Q9GZV5
Sequence of wwtr1_human WWTR1, Q9GZV5 (Q9GZV5 whole entry): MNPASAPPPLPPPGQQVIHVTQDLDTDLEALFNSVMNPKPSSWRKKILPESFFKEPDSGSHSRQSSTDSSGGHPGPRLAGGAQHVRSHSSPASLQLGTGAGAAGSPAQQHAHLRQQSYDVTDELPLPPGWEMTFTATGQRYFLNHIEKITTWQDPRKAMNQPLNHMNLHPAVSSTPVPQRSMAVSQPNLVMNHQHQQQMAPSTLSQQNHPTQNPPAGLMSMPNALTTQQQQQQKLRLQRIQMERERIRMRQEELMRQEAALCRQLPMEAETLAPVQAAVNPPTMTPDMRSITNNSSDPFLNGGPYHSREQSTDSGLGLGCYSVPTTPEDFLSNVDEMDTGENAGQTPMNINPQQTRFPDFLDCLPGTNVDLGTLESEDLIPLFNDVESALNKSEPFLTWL

With P617S as the variant, how does the “effect of a mutation on the interaction” value read?
The value was “decreasing interaction strength”.

P618R was tested. Which “effect of a mutation on the interaction” value did it give?
Its value is “decreasing interaction strength”.

Source: IntAct's records for PubMed 39009827
